Assay results published in patent US20080044414A1 (published 2008).
Where “and” joins values, the source holds several entries; their conditions need not be identical. Identical values can stand only once. Like-named read-outs stand apart in the source and are kept apart here.

B1: AB5 (antibody, V domains shown)
VH: QVTLKESGPGILKPSQTLSLTCSFSGFSLSTSGMGVGWIRQPSGKGLEWLAHIWWDGDESYNPSLKTQLTISKDTSRNQVFLKITSVDTVDTATYFCARNRYDPPWFVDWGQGTLVTVSS
VL: DIQMTQTTSSLSASLGDRVTISCRASQDISNYLSWYQQKPDGTVKLLIYYTSKLHSGVPSRFSGSGSGTDYSLTISNLEQEDIATYFCLQGKMLPWTFGGGTKLEIK
notes: also called AB5 (invention)
B2: AB2 (antibody, V domains shown)
VH: QVTLKESGPGILKPSQTLSLTCSFSGFSLSTSGMGVGWIRQPSGKGLEWLAHIWWDGDESYNPSLKTQLTISKDTSRNQVFLKITSVDTVDTATYFCARVRYDPPWFVDWGQGTLVTVSS
VL: DIQMTQTTSSLSASLGDRVTISCRASQDISNYLSWYQQKPDGTVKLLIYYTSKLHSGVPSRFSGSGSGTDYSLTISNLEQEDIATYFCLQGKMLPWTFGGGTKLEIK
B3: AB3 (antibody, V domains shown)
VH: QVTLKESGPGILKPSQTLSLTCSFSGFSLSTSGMGVGWIRQPSGKGLEWLAHIWWDGDESYNPSLKTQLTISKDTSRNQVFLKITSVDTVDTATYFCARFRYDPPWFVDWGQGTLVTVSS
VL: DIQMTQTTSSLSASLGDRVTISCRASQDISNYLSWYQQKPDGTVKLLIYYTSKLHSGVPSRFSGSGSGTDYSLTISNLEQEDIATYFCLQGKMLPWTFGGGTKLEIK
B4: AB-control (antibody, V domains shown)
VH: QVTLKESGPGILKPSQTLSLTCSFSGFSLSTSGMGVGWIRQPSGKGLEWLAHIWWDGDESYNPSLKTRLTISKNTSRNQVFLKITTVDTVDTATYFCARNRYDPPWFVDWGQGTLVTVSS
VL: DIQMTQTTSSLSASLGDRVTISCRASQDISNYLSWYQQKPDGTVKLLIYYTSKLHSGVPSRFSGSGSGTDYFLTISNLEQEDIATYFCLQGKMLPWTFGGGTKLEIK
notes: must be checked against the listing
B5: AB1 (antibody, V domains shown)
VH: QVTLKESGPGILKPSQTLSLTCSFSGFSLSTSGMGVGWIRQPSGKGLEWLAHIWWDGDESYNPSLKTQLTISKDTSRNQVFLKITSVDTVDTATYFCARARYDPPWFVDWGQGTLVTVSS
VL: DIQMTQTTSSLSASLGDRVTISCRASQDISNYLSWYQQKPDGTVKLLIYYTSKLHSGVPSRFSGSGSGTDYSLTISNLEQEDIATYFCLQGKMLPWTFGGGTKLEIK
notes: also called AB1 (invention)
B6: AB7 (antibody, V domains shown)
VH: QVQLQESGPGLVKPSQTLSLTCSFSGFSLSTSGMGVGWIRQPSGKGLEWLAHIWWDGDESYNPSLKSRLTISKDTSKNQVSLKITSVTAADTAVYFCARNRYDPPWFVDWGQGTLVTVSS
VL: DIQMTQSTSSLSASVGDRVTITCRASQDISNYLSWYQQKPGKAVKLLIYYTSKLHSGVPSRFSGSGSGTDYTLTISSLQQEDFATYFCLQGKMLPWTFGQGTKLEIK
notes: Human engineered antibody

How the values were obtained:
human IL-1β [1] = target: T1, human IL-1β (human, UniProt P01584 117-269); test: KinExA kinetic exclusion assay
T1 construct: mature; also called recombinant human IL-1β; rhIL-1β
Method: KD values represent the binding dissociation constants for the respective antibody-IL-1β complexes. KD was calculated as the ratio of “off rate” (rate of dissociation for the antibody-IL-1β complex) to “on rate” (rate of association for the antibody-IL-1β complex).

human IL-1β [2] = target: T1, human IL-1β; test: KinExA kinetic exclusion assay; remark: listed apart in the source
From the text: The KINEXA™ device performs a kinetic exclusion assay, and fits the data to various theoretical curves and thus determines KD as well as other properties, such as 95% confidence intervals for KD. The KINEXA™ device is generally more sensitive than other devices (e.g., a BiaCore device) for analysis of affinity characteristics such as dissociation constants and off-rates.

human IL-1β [3] = target: T1, human IL-1β; test: cell-based or functional assay
human IL-1β [4] = target: T1, human IL-1β; test: cell-based or functional assay; remark: listed apart in the source
human IL-1β [5] = target: T1, human IL-1β; test: cell-based or functional assay; remark: listed apart in the source
guinea pig IL-1β = target: T2, guinea pig IL-1β (guinea pig, UniProt Q9WVG1 115-266, limits assumed); test: immunoprecipitation with AB7 and protein A-Sepharose from PBMC supernatant, Western blot with AB7
T2 sequence (looked up): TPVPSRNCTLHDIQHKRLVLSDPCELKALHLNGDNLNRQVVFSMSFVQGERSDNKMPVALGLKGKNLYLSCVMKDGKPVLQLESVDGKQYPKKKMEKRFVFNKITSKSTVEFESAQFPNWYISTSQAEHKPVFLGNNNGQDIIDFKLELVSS
Method: (§1) Fresh heparanized whole blood from rhesus macaque, cynomolgus monkey, dog, guinea pig and rabbit was obtained from Charles River Labs. The whole blood was separated by Ficoll density gradient centrifugation and peripheral blood mononuclear cells (PBMC's) were isolated. For each species' PBMC, 2.5×10⁵ cells/ml were incubated in peripheral RPMI media with and without 50 ng/ml Lipopolysaccharide LPS (E. Coli 055:B5), and supernatants were collected at 24 hours post-stimulation. LPS is intended to stimulate the production of IL-1β by the PBMC's. […] Human IL-1β (Peprotech) was spiked into RPMI and run as immunoprecipliation/Western blot controls. After centrifugation and washing of the Protein A-Sepharose beads, all samples were loaded onto a SDS-PAGE gel and run at 120V for 1 hour. […] A secondary goat anti-human IgG antibody conjugated with horseradish peroxidase (HRP) was added following wash steps and detection was with one step tetramethyl benzidine (TMB) solution.

dog IL-1β = target: T3, dog IL-1β (dog, UniProt Q28292 115-266); test: immunoprecipitation with AB7 from LPS-stimulated PBMC supernatant, Western blot with AB7 (FIG. 16)
T3 sequence (looked up): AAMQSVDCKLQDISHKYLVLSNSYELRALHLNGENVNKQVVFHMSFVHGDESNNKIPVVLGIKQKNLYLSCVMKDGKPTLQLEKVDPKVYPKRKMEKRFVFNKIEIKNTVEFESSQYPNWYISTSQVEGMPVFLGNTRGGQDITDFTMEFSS
Method: as §1

rabbit IL-1β = target: T4, rabbit IL-1β (rabbit, UniProt P14628 117-268); test: as above
T4 sequence (looked up): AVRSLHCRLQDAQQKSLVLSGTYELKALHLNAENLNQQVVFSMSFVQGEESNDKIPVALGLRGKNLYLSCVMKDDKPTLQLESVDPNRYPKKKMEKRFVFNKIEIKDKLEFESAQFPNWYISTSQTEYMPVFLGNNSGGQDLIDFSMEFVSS
Method: as §1

rhesus macaque IL-1β = target: T5, rhesus macaque IL-1β (rhesus macaque, UniProt P48090 117-269); test: cell-based or functional assay
T5 sequence (looked up): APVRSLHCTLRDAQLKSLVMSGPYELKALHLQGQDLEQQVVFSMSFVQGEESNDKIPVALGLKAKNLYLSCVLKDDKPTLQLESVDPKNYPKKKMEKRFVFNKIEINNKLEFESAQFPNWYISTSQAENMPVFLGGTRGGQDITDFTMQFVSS

[6] = target: T6, soluble IL-1 receptor type I (IL-1 sRI) (UniProt P14778 18-336); test: Biacore, AB7 immobilized on CM-5 chip, IL-1 sRI injected
T6 construct: extracellular domain; also called IL-1RI
T6 sequence (looked up): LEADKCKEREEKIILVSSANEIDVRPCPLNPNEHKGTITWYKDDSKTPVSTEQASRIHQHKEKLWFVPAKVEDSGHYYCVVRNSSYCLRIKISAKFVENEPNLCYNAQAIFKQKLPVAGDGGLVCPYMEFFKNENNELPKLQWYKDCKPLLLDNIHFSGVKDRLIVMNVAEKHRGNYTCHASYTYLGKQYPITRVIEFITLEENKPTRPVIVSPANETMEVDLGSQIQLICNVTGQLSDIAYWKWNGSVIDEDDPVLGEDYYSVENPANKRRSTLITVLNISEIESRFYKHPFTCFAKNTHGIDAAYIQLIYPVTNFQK
Method: Using HBS-EP (Biacore®, Inc.) as running buffer, the temperature was set to 25° C., the flow rate was set to 10 μL/min, and the flow path was directed to flow cell 2 only. 135 μL of each of NHS and ECD solutions (Biacore®, Inc.) were mixed, and 70 μL of the NHS/ECD solution was immediately injected in the flow path. […] To prepare a reference surface, the flow path was changed to flow cell 1 only. 135 μL of each of NHS and ECD solutions (Biacore®, Inc.) were mixed, and 70 μL of the NHS/ECD solution was immediately injected in the flow path, followed by 70 μL 1M Ethanolamine (Biacore®, Inc.).
The flow rate was set to 10 μL/min. The flow path for the Biacore® instrument was set to flow cells 1 and 2, and reference subtraction of flowcell 2 from flowcell 1 was used to determine a response differential.

| Kd (human IL-1β [1]) [pM] | IC50, inhibition of IL-1β stimulated release of IL-6 from human MRC5 fibroblasts (human IL-1β [4]) [nM] | IC50, inhibition of IL-1β stimulated release of IL-6 from human fibroblasts (FIG. 10) (human IL-1β [5]) [nM] | IC50 of an individual assay, IL-6 release from human fibroblasts (human IL-1β [5]) | mean IC50, inhibition of IL-1β stimulated release of IL-6 from human fibroblasts (human IL-1β [5]) [pM] | other results | Binder |
| --- | --- | --- | --- | --- | --- | --- |
| 0.261 | 0.014 | – | – | – | Kd (human IL-1β [2]): 0.24 pM; IC50, inhibition of IL-1β stimulated release of IL-6 from human fibroblasts (human IL-1β [3]): 4.9 pM | B1 |
| – | – | 0.076 | – | – | – | B2 |
| – | – | 0.214 | – | – | – | B3 |
| 3.06 | 0.017 | – | 5 pM and 4.9 pM | 8.9 | – | B4 |
| 18.6 | 0.15 | 0.029 | 35 pM and 30 pM and 52 pM | 66.7 | – | B5 |
| – | – | – | – | – | binding result (guinea pig IL-1β): no binding; binding result (dog IL-1β): binds; binding result (rabbit IL-1β): binds; mean IC50, inhibition of IL-1β stimulated proliferation of D10.G4.1 cells (10 pg/ml recombinant rhesus IL-1β) (rhesus macaque IL-1β): 2.7 pM; binding result [6]: no binding (tested: 10 ug/mL) | B6 |
